Assay results reported in US20230029835A1 (KEYMED BIOSCIENCES, published 2023).
Like-named read-outs stand apart in the source and are kept apart here.

Legend:
[1] = biological target: T1, human TSLP recombinant protein (human, UniProt Q969D9 29-159, biotinylated in the blocking and cell-binding assays (sites not given)); assay: cell-based or functional assay
[2] = biological target: T1, human TSLP recombinant protein; assay: SPR BIAcore T200, antibody captured on Protein A, human TSLP injected
Protocol: After each injection cycle, the Protein A chip surface was regenerated with regeneration buffer 10 mM glycine (pH 2.0) at a flow rate of 30 μL/min.
The association rate constant (ka) and dissociation rate constant (kd) and equilibrium dissociation constant KD were analyzed by fitting the resulting data to a Langmuir 1:1 kinetics theoretical model using BIAevaluation software.

[3] = biological target: T1, human TSLP recombinant protein; assay: ELISA on coated human TSLP
Protocol: (§1) The plate was washed three times with PBS and blocked by adding 200 μL/well of PBS containing 2% skim milk for 1 hour. […] After washing with PBST and PBS three times, respectively, 100 μL of TMB substrate was added to each well for color development at 37° C. for 10 minutes, the reaction was terminated with 50 μL of 2M sulfuric acid solution per well, and the absorbance was read at a wavelength of 450 nm.

[4] = biological target: T1, human TSLP recombinant protein; assay: competition ELISA, biotin-human TSLP to coated human TSLPR-Fc
Protocol: (§2) Human TSLPR recombinant protein was coated onto a 96-well microtiter plate at 1 μg/mL in carbonate buffer overnight at 4° C. The plate was washed three times with PBS and blocked by adding 200 μL/well of PBS containing 2% skim milk for 1 hour. […] The 96-well plate was washed three times with PBS, and 100 μL of the incubated mixture was added to each well and incubated for 1 hour at room temperature. After washing with PBST and PBS three times, respectively, 100 μL of SA-HRP was added to each well and incubated at room temperature for 30 minutes in the dark. After washing with PBST and PBS three times, respectively, 100 μL of TMB substrate was added to well for color development at 37° C. for 10 minutes, the reaction was terminated with 50 μL of 2M sulfuric acid solution per well, and the absorbance was read at a wavelength of 450 nm.

[5] = biological target: T1, human TSLP recombinant protein; assay: cell-based or functional assay; remark: listed apart in the source
[6] = biological target: T2, Cynomolgus macaques TSLP recombinant protein (Cynomolgus macaques, UniProt Q969D9 29-159 (human entry), limits assumed, biotinylated in the blocking assays (sites not given)); assay: ELISA on coated cynomolgus TSLP
T2 construct: also called cyTSLP; biotinylated Cynomolgus macaques TSLP protein
T2 chain: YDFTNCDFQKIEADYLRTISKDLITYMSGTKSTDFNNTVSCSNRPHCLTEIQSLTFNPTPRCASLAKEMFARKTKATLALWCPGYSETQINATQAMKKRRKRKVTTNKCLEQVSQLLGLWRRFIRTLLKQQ

[7] = biological target: T2, Cynomolgus macaques TSLP recombinant …; assay: competition ELISA, biotin-cynomolgus TSLP to coated cynomolgus TSLPR-Fc
Protocol: Cynomolgus macaques TSLPR recombinant protein was coated onto a 96-well microtiter plate at 1 μg/mL in carbonate buffer overnight at 4° C. The plate was washed three times with PBS and blocked by adding 200 μL/well of PBS containing 2% skim milk for 1 hour. […] The 96-well plate was washed three times with PBS, and 100 μL of the incubated mixture was added to each well and incubated for 1 hour at room temperature. After washing with PBST and PBS three times, respectively, 100 μL of SA-HRP was added to each well and incubated at room temperature for 30 minutes in the dark. After washing with PBST and PBS three times, respectively, 100 μL of TMB substrate was added to well for color development at 37° C. for 10 minutes, the reaction was terminated with 50 μL of 2M sulfuric acid solution per well, and the absorbance was read at a wavelength of 450 nm.

[8] = biological target: T1, human TSLP recombinant protein; assay: ELISA, human TSLP coated at 1 ug/mL, anti-human IgG Fc-HRP, A450
Protocol: as §1

[9] = biological target: T2, Cynomolgus macaques TSLP recombinant …; assay: ELISA on coated cynomolgus TSLP
Protocol: as §1

[10] = biological target: T1, human TSLP recombinant protein; assay: SPR BIAcore T200, antibody captured on Protein A, human TSLP injected; remark: listed apart in the source
Protocol: (§3) After each injection cycle, the Protein A chip surface was regenerated with regeneration buffer 10 mM glycine (pH 2.0) at a flow rate of 30 μL/min. The association rate constant (ka) and dissociation rate constant (kd) and equilibrium dissociation constant KD were analyzed by fitting the resulting data to a Langmuir 1:1 kinetics theoretical model using BIAevaluation software.

[11] = biological target: T1, human TSLP recombinant protein; assay: flow cytometry competition, biotin-human TSLP to Ba/F3-hTSLPR-IL7Rα cells
Protocol: Ba/F3-hTSLPR-IL7Rα cells were washed three times with PBS, centrifuged at 300 g for 3 minutes, and blocked with 3% BSA/PBS for 30 minutes. The cells were resuspended and added to a 96-well U-plate at 5×10⁴/well.

[12] = biological target: T1, human TSLP recombinant protein; assay: ELISA on coated human TSLP; remark: listed apart in the source
Protocol: as §1

[13] = biological target: T1, human TSLP recombinant protein; assay: cell-based or functional assay; remark: listed apart in the source
[14] = biological target: T1, human TSLP recombinant protein; assay: competition ELISA, biotin-human TSLP to coated human TSLPR-Fc; remark: listed apart in the source
Protocol: as §2

[15] = biological target: T1, human TSLP recombinant protein; assay: cell-based or functional assay; remark: listed apart in the source
[16] = biological target: T2, Cynomolgus macaques TSLP recombinant …; assay: SPR BIAcore T200, antibody captured on Protein A, cynomolgus TSLP injected
Protocol: as §3

[17] = biological target: T2, Cynomolgus macaques TSLP recombinant …; assay: competition ELISA, biotin-cynomolgus TSLP to coated cynomolgus TSLPR-Fc
Protocol: Cynomolgus macaques TSLPR recombinant protein was coated onto a 96-well microtiter plate at 1 g/mL in carbonate buffer overnight at 4° C. The plate was washed three times with PBS and blocked by adding 200 μL/well of PBS containing 2% skim milk for 1 hour. […] The 96-well plate was washed three times with PBS, and 100 μL of the incubated mixture was added to each well and incubated for 1 hour at room temperature. After washing with PBST and PBS three times, respectively, 100 μL of SA-HRP was added to each well and incubated at room temperature for 30 minutes in the dark. After washing with PBST and PBS three times, respectively, 100 μL of TMB substrate was added to well for color development at 37° C. for 10 minutes, the reaction was terminated with 50 μL of 2M sulfuric acid solution per well, and the absorbance was read at a wavelength of 450 nm.

B1: 71G4 chimeric antibody (antibody, V domains shown)
VH: QVQLQQSGAELVMPGASVKMSCKASGYTFTDYWMHWVKQRPGQGLEWIGTIDNSDSDTTYNQKFKGKVTLTVDESSSTAYMQLSSLTSEDSAVYYCARSVDGYLDYWGQGTTLTVSS
VL: EIQMTQSPASLSASVGETVTITCRTSENIYSYLAWYQQKQGKSPQLLVYFAKTLTDGVPSRLSGSGSGTQFSLKINSLQPEDFGSYYCQHHYGTPWTFGGGTKLEIK
In the case of B1, the “Inhibition IC50 of STAT5 reporter gene” value [1] is reported as 1670 pM, the Kd [2] is reported as 10 pM and the koff [2] is reported as 3.16e-05 s⁻¹. For the same binder, the kon [2] was 3.15e+06 M⁻¹ s⁻¹, the EC50 [3] was 320 pM and the IC50 [4] was 1520 pM. For the same binder, the “Inhibition IC50 of cell proliferation” value [5] was 12700 pM, the EC50 [6] was 600 pM and the IC50 [7] was 560 pM.

B2: 39G5-H8 chimeric antibody (antibody, V domains shown)
VH: QVQLLQSGPQLVRPGASVKISCKASGYSFISYWIHWVKQRPGQGLEWIGIIDPSDSDTSLNQKFKDKATLTVDKSSTTAYIQLSSPTSEDSAVYYCARSLDGYYDYWGQGTTLTVSS
VL: DIQMTQSPASLSASVGETVTITCRASENIYSYLAWYQQKQGKSPQLLVYNARTLPEGVPSRFSGSGSGTQFSLKINSLQPEDFGIYYCQHHYTTPWTFGGGTKLEIK
B2 was tested, and the “Inhibition IC50 of STAT5 reporter gene” value [1] was 3330 pM, the Kd [2] was 9.5 pM and the koff [2] was 4.6e-05 s⁻¹. The kon [2] was 4.84e+06 M⁻¹ s⁻¹, the EC50 [3] was 150 pM and the IC50 [4] was 3420 pM. The “Inhibition IC50 of cell proliferation” value [5] was 39100 pM, the EC50 [6] was 540 pM and the IC50 [7] was 1740 pM.

B3: 80D12 chimeric antibody (antibody, V domains shown)
VH: QVQLKQSGPQLVRPGASVKISCKASGYSFTSYWMHWVKQRPGQGLEWIGMIDPSDSETTLNQKFKDKATLTVDKSSTTAYMQLSSPTSEDSAVYYCARSLDGYYDYWGQGTTLTVSS
VL: DVQMIQSPASLSASVGETVTITCRTSENIYSYLAWYQQKQGKSPQLLVYFAKTLTDGVPSRFSGSGSGTQFSLKINSLQPEDFGSYYCQHHYGTPWTFGGGTKLEIK
In the case of B3, the “Inhibition IC50 of STAT5 reporter gene” value [1] is reported as 3840 pM, the Kd [2] is reported as 5.96 pM and the koff [2] is reported as 2.84e-05 s⁻¹. The kon [2] was 4.77e+06 M⁻¹ s⁻¹, the EC50 [3] was 210 pM and the IC50 [4] was 2440 pM. For the same binder, the “Inhibition IC50 of cell proliferation” value [5] was 44700 pM, the EC50 [6] was 350 pM and the IC50 [7] was 630 pM.

B4: Ab12 (antibody, V domains shown)
VH: QVQLVQSGAEVKKPGSSVKVSCKASGYTFTDYWMHWVRQAPGQGLEWMGTIDNSDSDTSLNQKFQGRVTITADESSSTAYMELSSLRSEDTAVYYCARSLDGYYDYWGQGTLVTVSS
VL: DIQMTQSPSSLSASVGDRVTITCRASENIYSYLAWYQQKPGKAPKLLIYNARTLPEGVPSRFSGSGSGTDFTLTISSLQPEDFATYYCQHHYTTPWTFGQGTKVEIK
notes: Humanized; also called h39G5VHv12/h39G5VKv1
B4: binds [8]; binds [9].

B5: Ab23 (antibody, V domains shown)
VH: QVQLVQSGAEVKKPGSSVKVSCKASGYSFISYWIHWVRQAPGQGLEWMGIIDPSDSDTSLNQKFQGRVTITADESTSTAYMELSSLRSEDTAVYYCARSLDGYYDYWGQGTLVTVSS
VL: DIQMTQSPSSLSASVGDRVTITCRTSENIYSYLAWYQQKPGKAPKLLIYFAKTLTDGVPSRFSGSGSGTDFTLTISSLQPEDFATYYCQHHYGTPWTFGQGTKVEIK
notes: Humanized; also called h39G5VHv2/h71G4VKv1; h39G5VHv2/h71G4VKv1 hIgG1
B5 gave a Kd [10] of 0.0812 pM, a koff [10] of 1.61e-07 s⁻¹ and a kon [10] of 1.98e+06 M⁻¹ s⁻¹. For the same binder, the IC50 [11] was 330 pM, the EC50 [12] was 240 pM and the “STAT5 signal inhibition IC50” value [13] was 170 pM. For the same binder, the IC50 [14] was 1760 pM, the “Inhibition of Cell Proliferation IC50” value [15] was 1100 pM and the Kd [16] was 0.00708 pM. It also gave a koff [16] of 1.36e-08 s⁻¹, a kon [16] of 1.93e+06 M⁻¹ s⁻¹ and an IC50 [17] of 1540 pM. The EC50 [9] was 830 pM.

B6: Ab22 (antibody, V domains shown)
VH: QVQLVQSGAEVKKPGSSVKVSCKASGYSFISYWIHWVRQAPGQGLEWMGIIDPSDSDTSLNQKFQGRVTLTVDKSSTTAYMELSSLRSEDTAVYYCARSLDGYYDYWGQGTLVTVSS
VL: DIQMTQSPSSLSASVGDRVTITCRTSENIYSYLAWYQQKPGKAPKLLIYFAKTLTDGVPSRFSGSGSGTDFTLTISSLQPEDFATYYCQHHYGTPWTFGQGTKVEIK
notes: Humanized; also called h39G5VHv1/h71G4VKv1; h39G5VHv1/h7IG4VKv1 hIgG1
Binder B6 has a Kd [10] of 0.064 pM, a koff [10] of 1.07e-07 s⁻¹ and a kon [10] of 1.68e+06 M⁻¹ s⁻¹. For the same binder, the IC50 [11] was 390 pM, the EC50 [12] was 290 pM and the “STAT5 signal inhibition IC50” value [13] was 170 pM. The IC50 [14] was 1800 pM, the “Inhibition of Cell Proliferation IC50” value [15] was 2200 pM and the Kd [16] was 0.0421 pM. For the same binder, the koff [16] was 6.7e-08 s⁻¹, the kon [16] was 1.59e+06 M⁻¹ s⁻¹ and the IC50 [17] was 1000 pM. For the same binder, the EC50 [9] was 770 pM.

B7: Ab14 (antibody, V domains shown)
VH: EVQLVQSGAEVKKPGESLKISCKASGYTFTDYWMHWVRQMPGKGLEWMGTIDNSDSDTSLNQSFQGHVTISADKSISTAYLQWSSLKASDTAMYYCARSLDGYYDYWGQGTLVTVSS
VL: DIQMTQSPSSLSASVGDRVTITCRASENIYSYLAWYQQKPGKAPKLLIYNARTLPEGVPSRFSGSGSGTDFTLTISSLQPEDFATYYCQHHYTTPWTFGQGTKVEIK
notes: Humanized; also called h39G5VHv14/h39G5VKv1
B7: binds [8]; no binding [9].
